The record followed here is US20160256527A1 (ONCOMED PHARMACEUTICALS, published 2016).

The assay addresses T1, membrane bound single chain human GITRL trimer (human, UniProt Q9UNG2 29-177).
T1 construct: Expressed on the surface of transiently transfected HEK-293 cells (co-transfected with GFP); also called single chain hGITRL trimer
T1 sequence: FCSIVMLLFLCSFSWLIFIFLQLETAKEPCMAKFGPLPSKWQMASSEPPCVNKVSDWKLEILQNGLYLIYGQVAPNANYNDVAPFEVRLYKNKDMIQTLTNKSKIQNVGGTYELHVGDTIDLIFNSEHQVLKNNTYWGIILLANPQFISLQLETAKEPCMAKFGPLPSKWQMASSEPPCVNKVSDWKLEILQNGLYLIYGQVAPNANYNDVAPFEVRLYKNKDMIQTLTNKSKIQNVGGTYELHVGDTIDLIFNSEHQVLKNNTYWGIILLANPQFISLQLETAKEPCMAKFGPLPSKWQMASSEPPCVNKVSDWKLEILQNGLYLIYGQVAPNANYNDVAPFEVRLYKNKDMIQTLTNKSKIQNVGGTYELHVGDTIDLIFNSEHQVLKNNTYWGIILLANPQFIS
Kind of assay: flow cytometry, HEK-293 cells transfected with membrane bound single chain hGITRL trimer, PE anti-human Fc. How it is done:
FIG. 2. FACS analysis of a membrane bound single chain GITRL trimer and soluble GITR. HEK293 cells were transiently transfected with an expression vector encoding a membrane bound single chain human GITRL trimer and a second expression vector encoding green fluorescent protein (GFP). Transfected cells were incubated with soluble human GITR-Fc fusion protein and analyzed by flow cytometry. Positive binding is determined by observation of cells within the inset box of the FACS plot.
To test the ability of a single chain hGITRL trimer to bind human GITR, binding studies were conducted. Human HEK-293 cells were transiently co-transfected with expression vectors encoding (1) the membrane bound single chain hGITRL trimer construct described above and (2) green fluorescent protein (GFP) as a transfection marker. Twenty-four hours post-transfection, the cells were incubated with hGITR-Fc or a control fusion protein. The cells were stained with a PE-conjugated anti-human Fc secondary antibody and analyzed by flow cytometry.

B1: soluble human GITR-Fc fusion protein (Fc fusion, UniProt Q9Y5U5 26-162, looked up)
chain: QRPTGGPGCGPGRLLLGTGTDARCCRVHTTRCCRDYPGEECCSEWDCMCVQPEFHCGDPCCTTCRHHPCPPGQGVQSQGKFSFGFQCIDCASGTFSGGHEGHCKPWTDCTQFGFLTVFPGNKTHNAVCVPGSPPAEP
notes: also called hGITR-Fc; not shown: Fc region
With B1, the binding result is recorded as “binds”.
